These results are taken from patent US20240272170A1 (QUANTUM SI, published 2024).

By Kd is commonly meant the free concentration of one partner at which half of the binding sites on the other are occupied at equilibrium, for simple one-to-one binding.

For experiment [1], the target named is T1, labeled peptide XAKLDEESILKQK-FITC with N-terminal isoleucine.
T1 construct: also called IA peptide
T1 peptide: IAKLDEESILKQK(FITC)
Kind of experiment: fluorescence polarization titration, recognizer 0-5000 nM, labeled peptide fixed. How it is done:
(§1) Binding affinity was measured by polarization using a labeled peptide. The polarization response and total intensity measurements were carried out at 20° C. on a microplate fluorometer with 480 nm excitation and 530 nm emission. […] Multiple analyses were performed at increasing recognizer concentration at a fixed concentration of a target peptide to obtain a titration curve. An equilibrium polarization response at each concentration was plotted and fit to calculate the KD.

Experiment [2] has as its target T2, labeled peptide X…-FITC with N-terminal leucine (FITC on the C-terminal Lys).
T2 construct: the sentence itself names only the N-terminal residue; also called LA peptide
Described as above. Here is the method:
as §1

In experiment [3] the target is T3, target peptide Met-Ala-Lys-Leu (MAKL).
T3 peptide: MAKL
In words: purified protein:peptide complex, X-ray crystallography.

The target of experiment [4] is T4, target peptide Ala-Ala-Lys-Leu (AAKL).
T4 peptide: AAKL
The experiment is described as above.

Experiment [5] has as its target T5, labeled peptide X…-FITC with N-terminal valine (FITC on the C-terminal Lys).
T5 construct: also called VA peptide; valine peptide
Kind of experiment: fluorescence polarization titration, recognizer 0-4000 nM, labeled peptide fixed. Here is the method:
as §1
(Fluorescence polarisation rises when a labelled molecule tumbles more slowly, as on binding a larger partner.)

Experiment [6] deals with T6, labeled peptide XAKLDEESILKQK-FITC with N-terminal methionine.
T6 construct: also called MA peptide
T6 peptide: MAKLDEESILKQK(FITC)
Kind of experiment: fluorescence polarization titration, FITC peptide (FIG. 9D). How it is done:
as §1

For experiment [7], the target named is T7, … after cleavage to N-terminal leucine (LAFAYPDDD) (not fully specified (C-terminus); also: C-terminal azidolysine linked to DNA-streptavidin).
T7 construct: N-terminus exposed by aminopeptidases
T7 peptide: LAFAYPDDD
Kind of experiment: single-molecule dynamic sequencing on chip.

Experiment [8] concerns the target T8, synthetic peptide LCitLAFAYPDDDK
T8 construct: also called QP789
T8 peptide: L[Cit]LAFAYPDDDK
In words: single-molecule dynamic sequencing on chip.

Experiment [9] concerns the target T9, … after cleavage to N-terminal leucine (LIFAYPDDD) (not fully specified (C-terminus); also: C-terminal azidolysine linked to DNA-streptavidin).
T9 construct: N-terminus exposed by aminopeptidases
T9 peptide: LIFAYPDDD
Kind of experiment: single-molecule dynamic sequencing on chip.

For experiment [10], the target named is T10, RLpTFIAYPDDD after cleavage to N-terminal leucine (LpTFIAYPDDD).
T10 construct: N-terminus exposed by aminopeptidases
T10 peptide: L[pT]FIAYPDDD[Lys(N3)]
Kind of experiment: single-molecule dynamic sequencing on chip.

In experiment [11] the target is T11, … after cleavage to N-terminal leucine (LTFIAYPDDD).
T11 construct: N-terminus exposed by aminopeptidases
T11 peptide: LTFIAYPDDD
Kind of experiment: single-molecule dynamic sequencing on chip.

The target in experiment [12] is T12, RLMoFAYPDDD after cleavage to N-terminal leucine (LMoFAYPDDD) (not fully specified (C-terminus); printed as LMoFAYPDDD; also: C-terminal azidoLys linked to DNA-streptavidin).
T12 construct: second population of traces, methionine oxidized
T12 peptide: L[Met(O)]FAYPDDD
In words: single-molecule dynamic sequencing on chip.

In experiment [13] the target is T13, … after cleavage to N-terminal leucine (LVFAYPDDD) (not fully specified (C-terminus); also: C-terminal azidolysine linked to DNA-streptavidin).
T13 construct: N-terminus exposed by aminopeptidases
T13 peptide: LVFAYPDDD
In words: single-molecule dynamic sequencing on chip.

Experiment [14] concerns the target T14, … after cleavage to N-terminal leucine (LMFAYPDDD) (not fully specified (C-terminus); also: C-terminal azidolysine linked to DNA-streptavidin).
T14 construct: first population of traces, methionine not oxidized
T14 peptide: LMFAYPDDD
In words: single-molecule dynamic sequencing on chip.

Experiment [15] concerns the target T15, synthetic peptide LRLAFAYPDDDK (not fully specified (residue 12)).
T15 construct: also called QP707
T15 peptide: LRLAFAYPDDDK-NH2
Kind of experiment: single-molecule dynamic sequencing on chip.

For experiment [16], the target named is peptide with N-terminal AK (lysine peptide of Example 12). Kind of experiment: single-molecule dynamic sequencing on chip.
Experiment [17] deals with peptide with N-terminal AK{acetyl} (acetyl-lysine peptide of Example 12). Kind of experiment: single-molecule dynamic sequencing on chip.

Non-standard residues stand in square brackets, D forms with d. No end group written: not given here. *: point of attachment. FITC = O=C1OC2(c3ccc(O)cc3Oc3cc(O)ccc32)c2ccc(NC(=S)*)cc21; Lys(N3) = [N-]=[N+]=NCCCC[C@H](N)C(=O)O; pT = C[C@@H](OP(=O)(O)O)[C@H](N)C(=O)O; Met(O) = CS(=O)CC[C@H](N)C(=O)O; Cit = NC(=O)NCCC[C@H](N)C(=O)O

B1: PS961 (designed binder)
chain: MPTAASATESAIEDTPAPARPEVDGRTKPKRQPRYHVVLWDDDDHTYQYVVVMLRSLFGHPPSRGYRMAKEMDTQGRVIVLTTTREHAELKRDQIHAFGRDRLLARSKGSMKASIEAEE
notes: PS557 with N41D, Q55R, E63S, L68M, V72M, Y100R; His/biotinylation tag of the assay construct is not specified; also called Planctomycetes ClpS variant
As to B1, the equilibrium dissociation constant (Kd) in [1] amounted to 68 nM; in experiment [2] it was 55 nM; in [5], 144 nM; in experiment [6], 947 nM. In addition, the binding result in experiment [3] and in [4] was “binds” in each case. In addition, the “median pulse duration (PD)” value was determined as 1.29 s in [7]; 0.78 s in experiment [8]; 2.22 s in experiment [9]; 0.35 s in experiment [12]; 4.21 s in [13]; 0.86 s in [14]. Further, in experiment [15], the “median pulse duration (PD)” value was 0.43 s. For the same molecule, the entries for the “RS mean pulse duration (PD)” value in experiment [10] and in experiment [11] were 0.3 s and 1.2 s, respectively.

B2: PS1165 (other)
chain: MGLENSLETLRFSISNLSMQTHAARMRTFMYWPSSVPVQPEQLASAGFYYVGRNDDVKCFCCDGGLRCWESGDDPWVEHAKWFPRCEFLIRMKGQEFVDEIQGRYPHLLEQLLSG
notes: alanine recognizer
As to B2, the “RS mean pulse duration (PD)” value in experiment [16] was found to be 1.3 s; in [17], 2.2 s.
